Experimental data: patent US20250334575A1 (UNIVERSITY OF VERMONT AND STATE AGRICULTURE COLLEGE, published 2025)
Values belong to the molecule of their own block, whether it stands above or below them.

Tests used:
[1] = target: FcγRIIa (low affinity immunoglobulin gamma Fc region receptor II-a) (human) (UniProt P12318); test: co-immunoprecipitation with FcγRIIa from activated platelets, mass spectrometry of the excised band
activated GP IIb-IIIa = activated GP IIb-IIIa (human, UniProt P08514 32-1039; P05106 27-788); test: cell-based or functional assay
[2] = target: FcγRIIa (low affinity immunoglobulin gamma Fc region receptor II-a) (human) (UniProt P12318); test: cell-based or functional assay

Sequence of FcγRIIa (low affinity immunoglobulin gamma Fc region receptor II-a) (human) (P12318 34-317 limits assumed, form in doubt): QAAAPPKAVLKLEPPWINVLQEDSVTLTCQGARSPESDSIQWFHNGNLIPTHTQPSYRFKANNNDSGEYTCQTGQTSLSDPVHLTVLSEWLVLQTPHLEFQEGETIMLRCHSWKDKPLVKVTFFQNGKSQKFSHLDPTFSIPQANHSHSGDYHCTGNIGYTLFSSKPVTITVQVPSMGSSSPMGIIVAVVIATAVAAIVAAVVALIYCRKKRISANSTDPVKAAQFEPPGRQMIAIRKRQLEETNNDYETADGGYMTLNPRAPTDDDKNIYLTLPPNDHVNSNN
Sequence of activated GP IIb-IIIa (P08514 32-1039, chain 1 of 2): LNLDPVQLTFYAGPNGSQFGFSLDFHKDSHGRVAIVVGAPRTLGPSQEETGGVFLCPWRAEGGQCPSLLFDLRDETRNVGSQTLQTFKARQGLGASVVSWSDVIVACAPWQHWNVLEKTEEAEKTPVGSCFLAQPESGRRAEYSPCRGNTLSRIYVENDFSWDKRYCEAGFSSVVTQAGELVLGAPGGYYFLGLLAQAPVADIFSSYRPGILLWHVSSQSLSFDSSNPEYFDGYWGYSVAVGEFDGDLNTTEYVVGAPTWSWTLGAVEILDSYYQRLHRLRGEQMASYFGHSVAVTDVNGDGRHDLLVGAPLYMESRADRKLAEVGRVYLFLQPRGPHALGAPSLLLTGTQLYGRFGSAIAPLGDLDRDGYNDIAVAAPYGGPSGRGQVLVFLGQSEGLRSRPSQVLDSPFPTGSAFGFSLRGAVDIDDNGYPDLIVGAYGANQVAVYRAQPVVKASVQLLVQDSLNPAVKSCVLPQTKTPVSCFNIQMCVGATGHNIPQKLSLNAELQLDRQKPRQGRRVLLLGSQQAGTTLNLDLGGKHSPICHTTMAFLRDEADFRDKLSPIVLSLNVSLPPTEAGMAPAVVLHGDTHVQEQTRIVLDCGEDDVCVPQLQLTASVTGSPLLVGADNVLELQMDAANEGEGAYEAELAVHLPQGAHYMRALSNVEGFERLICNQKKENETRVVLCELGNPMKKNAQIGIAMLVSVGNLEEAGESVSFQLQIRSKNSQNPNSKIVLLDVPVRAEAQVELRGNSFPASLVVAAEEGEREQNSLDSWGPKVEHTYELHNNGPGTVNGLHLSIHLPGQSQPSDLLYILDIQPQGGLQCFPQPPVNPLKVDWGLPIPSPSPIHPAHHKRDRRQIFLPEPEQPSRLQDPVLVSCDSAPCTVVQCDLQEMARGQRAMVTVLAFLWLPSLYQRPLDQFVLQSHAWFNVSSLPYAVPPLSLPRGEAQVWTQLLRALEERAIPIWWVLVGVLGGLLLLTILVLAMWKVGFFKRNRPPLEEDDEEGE
Sequence of activated GP IIb-IIIa (P05106 27-788, chain 2 of 2): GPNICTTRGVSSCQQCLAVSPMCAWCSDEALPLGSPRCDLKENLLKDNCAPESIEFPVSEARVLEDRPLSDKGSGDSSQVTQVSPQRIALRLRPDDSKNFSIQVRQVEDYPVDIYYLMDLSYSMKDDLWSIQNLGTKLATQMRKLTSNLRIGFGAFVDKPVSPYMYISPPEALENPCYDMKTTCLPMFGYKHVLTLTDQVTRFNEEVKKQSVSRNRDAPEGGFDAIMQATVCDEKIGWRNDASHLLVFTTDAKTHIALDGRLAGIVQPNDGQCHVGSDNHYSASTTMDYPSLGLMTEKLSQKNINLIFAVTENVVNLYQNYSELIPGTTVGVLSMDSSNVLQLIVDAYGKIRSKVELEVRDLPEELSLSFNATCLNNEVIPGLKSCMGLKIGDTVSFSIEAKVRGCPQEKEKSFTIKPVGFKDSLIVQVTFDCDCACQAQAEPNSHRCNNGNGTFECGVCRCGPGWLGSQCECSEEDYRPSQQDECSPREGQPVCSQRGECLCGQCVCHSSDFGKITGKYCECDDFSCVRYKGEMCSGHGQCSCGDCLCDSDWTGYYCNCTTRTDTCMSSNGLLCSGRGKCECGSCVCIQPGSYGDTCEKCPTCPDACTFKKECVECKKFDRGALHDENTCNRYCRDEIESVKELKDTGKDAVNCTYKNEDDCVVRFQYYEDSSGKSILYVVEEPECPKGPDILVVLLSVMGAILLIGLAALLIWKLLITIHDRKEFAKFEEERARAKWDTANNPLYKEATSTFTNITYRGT

Molecule: gelsolin (from UniProt P06396 1-731)
share of the protein content of the 90 kDa band co-immunoprecipitated with FcγRIIa [1]: 6%

Molecule: filamin
share of the protein content of the 90 kDa band co-immunoprecipitated with FcγRIIa [1]: 1%

Molecule: coagulation Factor V (from UniProt P12259 29-2224)
share of the protein content of the 75 kDa band co-immunoprecipitated with FcγRIIa [1]: 4%

Molecule: nexilin (from UniProt Q0ZGT2 1-675)
share of the protein content of the 75 kDa band co-immunoprecipitated with FcγRIIa [1]: 3%

B2: coagulation Factor XIII (enzyme, human, UniProt P00488 2-732, looked up)
chain: SETSRTAFGGRRAVPPNNSNAAEDDLPTVELQGVVPRGVNLQEFLNVTSVHLFKERWDTNKVDHHTDKYENNKLIVRRGQSFYVQIDFSRPYDPRRDLFRVEYVIGRYPQENKGTYIPVPIVSELQSGKWGAKIVMREDRSVRLSIQSSPKCIVGKFRMYVAVWTPYGVLRTSRNPETDTYILFNPWCEDDAVYLDNEKEREEYVLNDIGVIFYGEVNDIKTRSWSYGQFEDGILDTCLYVMDRAQMDLSGRGNPIKVSRVGSAMVNAKDDEGVLVGSWDNIYAYGVPPSAWTGSVDILLEYRSSENPVRYGQCWVFAGVFNTFLRCLGIPARIVTNYFSAHDNDANLQMDIFLEEDGNVNSKLTKDSVWNYHCWNEAWMTRPDLPVGFGGWQAVDSTPQENSDGMYRCGPASVQAIKHGHVCFQFDAPFVFAEVNSDLIYITAKKDGTHVVENVDATHIGKLIVTKQIGGDGMMDITDTYKFQEGQEEERLALETALMYGAKKPLNTEGVMKSRSNVDMDFEVENAVLGKDFKLSITFRNNSHNRYTITAYLSANITFYTGVPKAEFKKETFDVTLEPLSFKKEAVLIQAGEYMGQLLEQASLHFFVTARINETRDVLAKQKSTVLTIPEIIIKVRGTQVVGSDMTVTVEFTNPLKETLRNVWVHLDGPGVTRPMKKMFREIRPNSTVQWEEVCRPWVSGHRKLIASMSSDSLRHVYGELDVQIQRRPSM
fold induction of ADP-induced activation of platelets by added Factor XIII in the presence of tirofiban (0.5 µg/ml) (activated GP IIb-IIIa): 0.8 fold | share of the protein content of the 75 kDa band co-immunoprecipitated with FcγRIIa [1]: 38% | share of the protein content of the 90 kDa band co-immunoprecipitated with FcγRIIa [1]: 1%

Other lines, results leading:

share of the protein content of the 55 kDa band co-immunoprecipitated with FcγRIIa [1]: 1%
Molecule: SRC kinase Lyn (from UniProt P07948 2-512) (enzyme)

share of the protein content of the 55 kDa band co-immunoprecipitated with FcγRIIa [1]: 3% | share of the protein content of the 75 kDa band co-immunoprecipitated with FcγRIIa [1]: 1%
Molecule: actin

fold induction of ADP-induced activation of platelets by added fibrinogen in the presence of tirofiban (0.5 µg/ml) (activated GP IIb-IIIa): 1.2 fold | fold induction of ADP-induced activation of platelets (surface expression of P-selectin) after addition of fibrinogen [2]: 1.5 fold | fold induction of ADP-induced activation of platelets by added fibrinogen after pretreatment with IV.3 (100 µg/ml) [2]: 0.9 fold | share of the protein content of the 55 kDa band co-immunoprecipitated with FcγRIIa [1]: 33% | share of the protein content of the 75 kDa band co-immunoprecipitated with FcγRIIa [1]: 24% | share of the protein content of the 90 kDa band co-immunoprecipitated with FcγRIIa [1]: 80%
B1: fibrinogen (other, human)
chain 1: ADSGEGDFLAEGGGVRGPRVVERHQSACKDSDWPFCSDEDWNYKCPSGCRMKGLIDEVNQDFTNRINKLKNSLFEYQKNNKDSHSLTTNIMEILRGDFSSANNRDNTYNRVSEDLRSRIEVLKRKVIEKVQHIQLLQKNVRAQLVDMKRLEVDIDIKIRSCRGSCSRALAREVDLKDYEDQQKQLEQVIAKDLLPSRDRQHLPLIKMKPVPDLVPGNFKSQLQKVPPEWKALTDMPQMRMELERPGGNEITRGGSTSYGTGSETESPRNPSSAGSWNSGSSGPGSTGNRNPGSSGTGGTATWKPGSSGPGSTGSWNSGSSGTGSTGNQNPGSPRPGSTGTWNPGSSERGSAGHWTSESSVSGSTGQWHSESGSFRPDSPGSGNARPNNPDWGTFEEVSGNVSPGTRREYHTEKLVTSKGDKELRTGKEKVTSGSTTTTRRSCSKTVTKTVIGPDGHKEVTKEVVTSEDGSDCPEAMDLGTLSGIGTLDGFRHRHPDEAAFFDTASTGKTFPGFFSPMLGEFVSETESRGSESGIFTNTKESSSHHPGIAEFPSRGKSSSYSKQFTSSTSYNRGDSTFESKSYKMADEAGSEADHEGTHSTKRGHAKSRPVRGIHTSPLGKPSLSP
chain 2: QGVNDNEEGFFSARGHRPLDKKREEAPSLRPAPPPISGGGYRARPAKAAATQKKVERKAPDAGGCLHADPDLGVLCPTGCQLQEALLQQERPIRNSVDELNNNVEAVSQTSSSSFQYMYLLKDLWQKRQKQVKDNENVVNEYSSELEKHQLYIDETVNSNIPTNLRVLRSILENLRSKIQKLESDVSAQMEYCRTPCTVSCNIPVVSGKECEEIIRKGGETSEMYLIQPDSSVKPYRVYCDMNTENGGWTVIQNRQDGSVDFGRKWDPYKQGFGNVATNTDGKNYCGLPGEYWLGNDKISQLTRMGPTELLIEMEDWKGDKVKAHYGGFTVQNEANKYQISVNKYRGTAGNALMDGASQLMGENRTMTIHNGMFFSTYDRDNDGWLTSDPRKQCSKEDGGGWWYNRCHAANPNGRYYWGGQYTWDMAKHGTDDGVVWMNWKGSWYSMRKMSMKIRPFFPQQ
chain 3: YVATRDNCCILDERFGSYCPTTCGIADFLSTYQTKVDKDLQSLEDILHQVENKTSEVKQLIKAIQLTYNPDESSKPNMIDAATLKSRKMLEEIMKYEASILTHDSSIRYLQEIYNSNNQKIVNLKEKVAQLEAQCQEPCKDTVQIHDITGKDCQDIANKGAKQSGLYFIKPLKANQQFLVYCEIDGSGNGWTVFQKRLDGSVDFKKNWIQYKEGFGHLSPTGTTEFWLGNEKIHLISTQSAIPYALRVELEDWNGRTSTADYAMFKVGPEADKYRLTYAYFAGGDAGDAFDGFDFGDDPSDKFFTSHNGMQFSTWDNDNDKFEGNCAEQDGSGWWMNKCHAGHLNGVYYQGGTYSKASTPNGYDNGIIWATWKTRWYSMKKTTMKIIPFNRLTIGEGQQHHLGGAKQAGDV
